Test results as given in patent US20240092847A1, “FUNCTIONAL NUCLEIC ACID MOLECULE AND METHOD” (The University Court of The University of Edinburgh, priority 2021, published 2024).

B1: SSE-7: synthetic super-enhancer ID4310_ID4428_ID0785_ID3836, SEQ ID NO: 70 (nucleic acid)
DNA: TTGTCCTGCCTTTGAGAACACTGGAAGGGCACTGAAGGCTGACCAGCATGCACCTCACCCCACCTCCTCTCTGTCTCATCCTCAGCCATCTAAGCGGGAGACTCATCAGGCTTAAATTCTCATTCTTATCCAAGATTCTTCTGCTTCAAATGAGTCTAAATGGAGATCCTCCCATAAAGGGAGTTCTGTTTGGGCTTCCCTTGGAAGTCCATTGAAAGCGTTTCACATTTCAATGCTTCTTTACATTCTCCTCTAGAATGAATCTGGAAGGGCCATTTCATTCCAGCCCTATCAGATTTACTACTTCCTCCTGTAAGAATGAACTGGGCCCAGCTGGGCATTTGCATCAAAGTGCCTCACCAGAGTTCCCAGCTGCTCTGGCAGAGTGCCCAGGCTTGCCCCAGAGCCCAAACAGAATGCTCTTTGAGATGCCTCTGGTTTTCATACCCTTCCAGGGGAGCAGTTTCCTGGCTGTGTCGTCAGATACTGTGGTTTACGCTGTTCCGGAGTCTGGAGGTCTGTGTGCCTTTGATCTCTTTCCCAACTAATTTGCACAGCTGCTGTGGAGGCCCTCATGAATGACCTCTTTCTTTCCTTTCT
B2: SSE-5: synthetic super-enhancer ID2706_ID3547_ID3548_ID3146, SEQ ID NO: 68 (nucleic acid)
DNA: CCAATGCCAAAGCAGTTTACATTTTACAGATGCCATGGCAACCGTCAGGAAGTTACCCTGTATGGTCTAAGAGGGGGAGGAACCCTCAGTTCCGGGAATTGCCCGCCCCTTTCCCGGAAACTCATGAATAATCCACCCCGTTCCCCCTTAACAAAAGCCACCTCCTCCCTCCTGAAAGGCACCATTGGTCACCAAAACAAGTCCCCTTTGTCCTCCACCGCAGCTGGAGCCTGGGCCTTCCATCTCCTGGGGGCCAATAAAACCCCAGATCAGCCAATCCTCCCTCCCTGGCTCTGTCATCCAAACACTCCCCTGCAACAGATGTACACACAGAGCCCATTGTTTTCTCTAGAAATGTAAACTGCACGTCACAGTTACTCCATACACACCACAAACAGACTCCCTTTGTTCTCAGGATATGTGTTGACACAAGAATATGTCATCCTCTCAGCTCCAGACTGAAAGAGATGGGTGTGTGGGAGTGGGGGAAGCTGAGCTCCAGGCAGACAGCACAGAGCCGCCTTGTCCAACCCAGCCAGGTGCCATGGCAACCAACAAAGGCCCCATTGTCCCGTGTCTGCTGGGCCTTCCTGAGGCTCTGGGGTCAGAGTCCCGGTT
B3: SSE-3: synthetic super-enhancer ID0876_ID2339_ID1737_ID0663, SEQ ID NO: 66 (nucleic acid)
DNA: GAGCAGGCAGTCATTTGGTTCCCTTCTCTGAATGCATTGGCTCTGATCCACGGCGCCTCAGGAAGTGAAAGGGAGCAGGCAGTGAGGCCAAGCCATGAATGTTGGGCCCTTTTCTTAGAAAACAAAGGGTTCACTTTAGGCTAGGAGGAAACATCCGGGGGTCGGCGGAACTGAGTCTCCTTTGTGGAGCCCCTCATTTGCATGATAAACCCCGGGGACAAAGTGTGTTCTTGTTACTTGGACTGTTTCTTGGAAACTGCTGCTACCTGGAGCGAGTGAACACAGGGCAAGTATTCTCGCCCACAGCAACGTGTCATTGACAACGTTTTTGGCAGATGCAGCTCTTTCTGAACAGTAAGTCATTGTTGAGTGACATGAATAGGACGAGAGCTACAGAAAATGAAGGTTTCAAAAGATTGTCTAAAACAAAAGTCCTTTCAGTCCCGTATTCAGAGTTATAAATTCCGATTAGCCAAGGAAGCTCTGAGTCTAAATACCAGCAAAGCTCAGCCCCTGCAAGTGGGGACGAATTATTTGAAAGGTCATCCTAGAGACACTGAACAAAGGGCCTCTAGCAGCT
B4: SSE-2: synthetic super-enhancer ID0109_ID4328_ID0876_ID2339, SEQ ID NO: 65 (nucleic acid)
DNA: GAAATTGGATCCTGAGGAGAATGTCACCACCTCTTTGACAATAACTAGCTTTCAGAGCTGAACACAGTGAATCTGGATACTGTGTATATGTTTAAATGAGTTAGGAAATGACATCACATTATTTATTTCTTCTTTTGTGACTTAGTAAATTGACTTGGCCTACAATCTATTCTCCATAGTCATCAGAGTTTCTTTAAAGGCACGGTTCAGACAATGGCACCCTCTGTTCCAAACCCTCCAGGGCTTCCTATTTCACTTAGCATAAAAACCAAAGTCCTCACAATGACCGACAAGTCTTCACACAATGTGCCCCTTCATTGGAGCAGGCAGTCATTTGGTTCCCTTCTCTGAATGCATTGGCTCTGATCCACGGCGCCTCAGGAAGTGAAAGGGAGCAGGCAGTGAGGCCAAGCCATGAATGTTGGGCCCTTTTCTTAGAAAACAAAGGGTTCACTTTAGGCTAGGAGGAAACATCCGGGGGTCGGCGGAACTGAGTCTCCTTTGTGGAGCCCCTCATTTGCATGATAAACCCCGGGGACAAAGTGTGTTCTTGTTACTTGGACTGTTTCTTGGAAACTGCTGCTACCTGGAGCGAGTGAACACAGGGCAAGTATTCTCGCCCACAGCAACGTGTCATTGA
B5: SSE-1: synthetic super-enhancer ID1101_ID2904_ID0109_ID4328, SEQ ID NO: 64 (nucleic acid)
DNA: GTGAGTGTGACTCACATGCTGGCATCAGAGCCCCTCTTAGAGCTTAGAACACTGGGCCTCTGTCAGGCAAAGAAAAGGAGTCCCTATGAATAGCCATCTCCACAAATAGCAGTTACTGTCACTTCTTAAAAGACACAAGCATGGCTGGAGACCGGCACTGTGCATGTTCTTGGGAAAAAGTGGTATTTAATGAAGGCGCTTTGAGCTGAATCAAAGAGCCTCATTCTTCTGAAAGTCCTTCTTCCTAGTCTCTGCATCCGGCTCCTATCAAAGGAAATCCACAGCTTTGGCTTTTCGTTGCTGTTGTCATGGAAATCGTTGAAATTGGATCCTGAGGAGAATGTCACCACCTCTTTGACAATAACTAGCTTTCAGAGCTGAACACAGTGAATCTGGATACTGTGTATATGTTTAAATGAGTTAGGAAATGACATCACATTATTTATTTCTTCTTTTGTGACTTAGTAAATTGACTTGGCCTACAATCTATTCTCCATAGTCATCAGAGTTTCTTTAAAGGCACGGTTCAGACAATGGCACCCTCTGTTCCAAACCCTCCAGGGCTTCCTATTTCACTTAGCATAAAAACCAAAGTCCTCACAATGACCGACAAGTCTTCACACAATGTGCCCCTTCATTG

Tests used:
Format in all cases: cell-based, human
GSC7 cells [1] = experiment: Flow cytometry of mNGreen reporter in GSC7
Experimental: (§1) Cells were seeded at the required density. The following day the transfection was carried out. For this the Plus reagent and Lipofectamine LTX (Life Technologies, 15338030) were each diluted in half the volume of Opti-MEM I Reduced-Serum Medium (further referred to as Optimem) (Life Technologies, 31985062). Following this step, the Plus reagent/Optimem premix was added to all DNA samples followed by the Lipofectamine LTX/Optimem premix. The transfection mix was incubated for 5 min at room temperature and then carefully dropped on the cells. Generally, no media change was carried out. Cells were analysed two days following transfection.
For flow cytometry, cells were detached, pelleted and resuspended in an appropriate volume of flow cytometry buffer (1% BSA in PBS, v/v). Cells were stained with Draq7 (Abcam, ab109202, f.c. 0.1 μM) as a live/dead stain and analysed using the BD LSRFortessa cell analyser (4 lasers, BD Bioscience). Analysis of flow cytometry data was carried out in the FlowJo Analysis software (FlowJo, version 10.6.2).

[2] = system: patient-derived glioblastoma cell lines; experiment: SSE-7 mCherry expression across patient-derived glioblastoma cell lines
Text: The experiment described in Example 8 was repeated in five patient-derived glioblastoma cell lines (E17, E21, E28, E31, E34).

GSC7 cells [3] = experiment: Nano-Glo Dual-Luciferase Reporter (Nanoglo DLR) enhancer assay in GSC7
Text: We chose an arrayed library format, with 160 bp enhancer fragments individually cloned into separate plasmids and arrayed in 96 well plates. These 160 bp were synthesized as a single pool of oligos, then randomly cloned into the plasmid and isolated. 20 bp×2 were needed for PCR amplification of the pool and so a library of 200 bp fragments was synthesized (Twist Biosciences). To meet our oligo synthesis strategy, ChIP-seq peaks expressed by GSCs were merged into a single oligo. This oligonucleotide pool was PCR-amplified (using limited cycles to reduce bias and ‘jackpot’ products meaning products which are easier to amplify will overtake the oligonucleotide pool) and cloned into the expression vector by an efficient Golden Gate reaction. 4579 individual plasmids were then randomly picked, isolated and plated as an arrayed plasmid DNA library on 96 well plates (×48). The bacterial colony picking and production of plasmid minipreps were supported by the Edinburgh Genome Foundry (S. Rosser). This library was then screened using the optimised Nanoglo DLR assay (Nano-Glo Dual-Luciferase Reporter Assay, Promega) in 384 well format. Each plate was transiently transfected together with PGK-FFLuc in a 1:10 ratio into GSC7 cells. 2 days later a Nanoglo DLR assay was performed and assayed on a plate reader.
Cells were seeded in 384 well plates using a multidrop and transfected the following day using the CyBio Felix. Two days later the experiment was terminated with a Nanoglo DLR assay and all hits with a fold change to mCMV greater than 10 were Sanger sequenced and mapped back to the genome.
as §1
This assay consists of two steps. […] First, the Firefly Luciferase activity is measured which allows to normalise to transfection efficiency. In a second step, the activity of Nanoluc is determined which is the readout of the plasmid of interest. […] 20 μl cell lysate in 96 well format or 25 μl cell lysate in 384 well format was then transferred into the corresponding opaque white plate and luminescence was measured at for 0.1 s per well using the Ensight Multimode Plate Reader. […] Nanoluc activity was measured for 0.1 s per well, again using Ensight Multimode Plate Reader. […]

| Molecule | activity compared with full CMV by flow cytometry (GSC7 cells [1]) | mCherry expression ([2]; E21, E31 and E34) | mCherry expression ([2]; GSC7, E17 and E28) | activity compared with full CMV by Nanoglo DLR assay (GSC7 cells [3]) |
| --- | --- | --- | --- | --- |
| B1 | higher than CMV | lower frequency of expression | highly expressed and comparable to full-length CMV | – |
| B2 | higher than CMV | – | – | higher than CMV |
| B3 | higher than CMV | – | – | higher than CMV |
| B4 | higher than CMV | – | – | higher than CMV |
| B5 | higher than CMV | – | – | higher than CMV |
